Results: article doi:10.1101/2022.08.19.504472

Legend:
[1] = biological target: FITC-labeled RLAAK peptide; assay: fluorescence polarisation
[2] = biological target: FITC-labeled RDAAK peptide; assay: fluorescence polarisation

Kd [1] [µM]	Kd [2] [µM]	Substance
709	–	His-MBP-OsPRT6-UBR 136H+161V double mutant (domain or fragment)
41.4	–	His-MBP-OsPRT6-UBR 161V mutant (domain or fragment)
58.9	–	His-MBP-OsPRT6-UBR 136H mutant (domain or fragment)
25.8	137	His-MBP-OsPRT6-UBR wild type (domain or fragment)
